# Results taken from the supplement of paper PMC10126150.
# ± gives the standard deviation of the averaged measurements.
# Tested on: ATP
# Assay: switch fluorescence ratio, 500 uM ATP over buffer (Cy3 cluster intensity, sum of 5 cycles each) (fold (ratio)); higher = stronger signal-on switching upon ATP binding; sequences stand for … in TCGTCGGCAGCGTCAGATGTGTATAAGAGACAGTTTTTTTTTTTTTTTTTTTTTTTTT…TC
# Settings: aptamer strand: ATP DNA aptamer (quencher-CACCTGGGGGAGTATTGCGGAGGAAGG + anchor), 100 nM annealed; ATP concentration: 500 uM
# Summary of the method: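 Values give the fluorescence ratio for each switch-domain sequence, averaged from per-cluster ratios of summed target-cycle to summed buffer-cycle Cy3 intensity. The Cy3-labelled switching-strand clusters sat on a modified Illumina MiSeq flow-cell, were annealed to 100 nM quencher-labelled ATP aptamer, and were imaged in selection buffer, then after 15 min with 500 uM ATP at 22 °C. Five cycles ran with NaOH stripping and re-annealing between them, and clusters outside 100-1000 RFU were excluded.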
# 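Also: ATP exposure 15 min at 22 °C before imaging.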
row,Sequence,switch fluorescence ratio
1,TTTTTGCCGG,1.01 ± 0.014
2,AATTAAAGGG,1.03 ± 0.066
3,CCAAAGCTAG,2.1 ± 0.028
4,ATAGTGGGGG,0.975 ± 0.017
5,TAGTGGCCTG,0.955 ± 0.023
6,AAAAAGTGCC,1.07 ± 0.11
7,TCTATAAGGA,1.01 ± 0.048
8,CTGGTCCGGT,0.994 ± 0.018
9,CTCAGGGATT,1.07 ± 0.033
10,TGAGGGCAGC,0.993 ± 0.026
11,TACCCTTGCC,1.22 ± 0.25
12,TTACCGTACG,1.45 ± 0.11
13,CTATGATCTT,0.992 ± 0.012
14,GGGGAATGGA,0.982 ± 0.028
15,AGACAGGTAA,1.01 ± 0.02
16,TGCGTAAGGC,1.18 ± 0.025
17,CTTGTTCTTA,0.996 ± 0.024
18,TTTCGGAAAA,1.24 ± 0.41
19,AATTGGTCCT,0.986 ± 0.041
20,CGGAAACTTT,1.0088 ± 0.00067
21,GCTAAAACAT,1.0086 ± 0.00063
22,AGTTTATCGT,1.03 ± 0.043
23,AAAAGGGCAT,1.01 ± 0.015
24,GGGGTTTTCG,1.01 ± 0.029
25,CATTTATTGT,0.992 ± 0.018

row,Sequence,switch fluorescence ratio
1,AATACAAGGC,1.076 ± 0.006
2,CTGTGTGCAG,1.01 ± 0.034
3,CAAGGCTACG,1.06 ± 0.04
4,CTTAGAAGAT,0.983 ± 0.044
5,AGTCTAAATA,1.02 ± 0.02
6,GGGTTAACCT,1.06 ± 0.075
7,GCGAAGACAA,1.04 ± 0.048
8,GTGGAAGAGT,0.999 ± 0.018
9,GGGTTTTTGA,1.02 ± 0.024
10,GGTTCGGTTC,1.02 ± 0.017
11,TATCGGTTGG,1.044 ± 0.0086
12,TGCGGTGGGG,0.976 ± 0.013
13,TGGAATTTTT,0.987 ± 0.03
14,GCTGTTTGCT,1.01 ± 0.034
15,GCGAGATCCG,1.01 ± 0.011
16,TGGTGAGATC,0.965 ± 0.0039
17,TGGATGGCCC,1.02 ± 0.016
18,GGGGGTCCCT,1.01 ± 0.015
19,AAGGACAAGA,1.02 ± 0.00092
20,TAAGGGGGAT,1.021 ± 0.0082
21,GCGGAAAGGC,1.01 ± 0.0025
22,TAGGCTGGGG,0.998 ± 0.023
23,GGGGGGCGGT,0.989 ± 0.015
24,CATATGTTTT,1 ± 0.035
25,GGAAGGGCGG,1.01 ± 0.048

row,Sequence,switch fluorescence ratio
1,TTCGGAGGGA,2.2 ± 1.5
2,AACGCTATGT,1.05 ± 0.023
3,CGGTTTGTTT,0.987 ± 0.04
4,ACTTCAGATT,0.995 ± 0.012
5,GGGTTCTTAT,0.992 ± 0.027
6,CGTTTTTTTG,1.014 ± 0.0018
7,CGGGTAGTTA,0.99 ± 0.029
8,CCTTATTTTG,1.05 ± 0.065
9,CGGCAGGTAA,1.05 ± 0.03
10,TTAAGAGACA,1.03 ± 0.033
11,TCATGGATCC,1.01 ± 0.035
12,TTTAGTTGTG,0.967 ± 0.014
13,ATCGCAGGCG,1.035 ± 0.0068
14,TTCAAGATTT,0.974 ± 0.022
15,CTTTGTATGG,1 ± 0.017
16,GGTATCGGTA,1.005 ± 0.0094
17,AACTAGGAGG,0.983 ± 0.012
18,GAGGGGGGGT,1.08 ± 0.34
19,TCCCATAAGC,1.099 ± 0.0051
20,GGGTTTGGGA,0.9899 ± 0.0088
21,TTCCGAGATA,1.119 ± 0.0079
22,ACATTACACA,1.4 ± 0.25
23,CAGTTACACG,0.995 ± 0.023
24,AAGGGGGGAG,0.986 ± 0.026
25,ATACAGGGCT,1.01 ± 0.029

row,Sequence,switch fluorescence ratio
1,CGGTAATGTG,1.03 ± 0.035
2,TTTTTTGCG,1.01 ± 0.063
3,ATGGGGGTCG,0.98 ± 0.05
4,TTTTGTGGGT,0.986 ± 0.022
5,TTATAATCTG,0.986 ± 0.064
6,TAATTTTGCG,1 ± 0.015
7,CGGGGGTGGC,0.984 ± 0.029
8,CGCTTATCAT,0.98 ± 0.03
9,TAAATGAAGG,1.04 ± 0.048
10,TTTTGAAGGA,1.01 ± 0.027
11,TTGCCTGAAA,1 ± 0.019
12,TTAGGGCCGC,0.966 ± 0.014
13,AGGGAGTATG,1.01 ± 0.023
14,TTTGGGTTAT,1.08 ± 0.21
15,GAAAAGAGGC,1.1 ± 0.039
16,AGATAAAACG,1.02 ± 0.076
17,TTCTGGCATG,1.09 ± 0.099
18,GTTGGGGATG,1.02 ± 0.026
19,TTCTCAAAGA,1.07 ± 0.1
20,ATGGAGAGAG,0.9929 ± 0.004
21,TTTTTATAAT,1.01 ± 0.026
22,ATTAAAACGG,1.07 ± 0.098
23,TTGGATAAAC,1.03 ± 0.053
24,TTCGTTCGGT,1.06 ± 0.07
25,TTTCTTGGCT,1.2 ± 0.38

row,Sequence,switch fluorescence ratio
1,TGGCAGTCGG,0.978 ± 0.019
2,ACCACAATGT,1.08 ± 0.055
3,GTTTTGGGTG,1.09 ± 0.058
4,AAATCTCGT,0.995 ± 0.058
5,TTCCAGTTGG,1.04 ± 0.037
6,GGTGGTTATT,0.996 ± 0.014
7,GTTGGTGGTG,0.9719 ± 0.0029
8,GTCATTGTAT,0.966 ± 0.028
9,GGGTTGACTT,1.015 ± 0.0018
10,CGATCTTGGA,0.94 ± 0.065
11,TTTGGCGGAA,1.04 ± 0.011
12,CCCCTTGTGT,2.087 ± 0.015
13,CTAGTCCTGA,0.986 ± 0.043
14,AGGGGAAGGA,1 ± 0.049
15,ATTGATACTA,1.03 ± 0.021
16,TATACGCGCC,1.12 ± 0.083
17,AGACGATTGT,0.985 ± 0.018
18,TAACCTATCT,1.04 ± 0.033
19,TAATCGAGGG,0.9831 ± 0.0091
20,TCCCGGGTAT,0.9787 ± 0.0073
21,CTATGGCTGG,0.981 ± 0.017
22,TTCCCGTGGG,1 ± 0.011
23,TGGGGTCGGG,1 ± 0.022
24,AGGAGGGGAG,1.024 ± 0.0053
25,TCATCTGCTG,1.17 ± 0.087

row,Sequence,switch fluorescence ratio
1,AGGGGGTATT,1.01 ± 0.024
2,ACTAGAACAT,1.052 ± 0.0042
3,CCAGACCAGT,1.011 ± 0.0024
4,TAATTGGTGT,1.02 ± 0.043
5,CGGCGGGGGA,1.04 ± 0.043
6,TGTTATATTA,1.01 ± 0.034
7,GAGTATTATA,1 ± 0.025
8,AGAGTCAACT,1 ± 0.042
9,AAGGACCGGC,0.991 ± 0.057
10,ATGTACGAAT,1.004 ± 0.0025
11,TGAAAAAAGG,0.966 ± 0.03
12,AAGGATATCT,0.988 ± 0.022
13,TGGAGCCCCG,0.999 ± 0.015
14,TTCGGAAGTT,0.966 ± 0.021
15,GCAGGTCGCG,1.01 ± 0.024
16,GCGCATAAGG,1.039 ± 0.0057
17,CATACATCCG,1.07 ± 0.038
18,CGGTTTAGGA,0.988 ± 0.028
19,CAGGATGGGC,0.977 ± 0.027
20,GTATCTGGGT,0.997 ± 0.011
21,ACTGTACCCT,1.22 ± 0.016
22,TGCTAGGGGT,1.41 ± 0.051
23,ACAGTTGTAT,1.015 ± 0.01
24,TTTGTTTGCA,1.01 ± 0.054
25,GATCATAGTT,0.995 ± 0.013

row,Sequence,switch fluorescence ratio
1,CACGGAGCAG,2.52 ± 0.15
2,TTCAGTACCT,1.19 ± 0.016
3,AGGGTTGACA,0.981 ± 0.046
4,GGTAGATGTC,1.01 ± 0.054
5,AGGGGGCGGG,1.03 ± 0.035
6,ATATCGGAGG,0.99 ± 0.041
7,TTCAGTTGAG,1 ± 0.014
8,AAATCTTTAT,1.01 ± 0.032
9,GTTAGACTCA,1.01 ± 0.014
10,TTCAGAGCGT,0.994 ± 0.018
11,CATGGGGCGG,1 ± 0.052
12,GCTCTAGGGA,0.984 ± 0.043
13,AATGAGATTG,0.989 ± 0.012
14,CGGGAGTTAA,1.01 ± 0.015
15,ATCCGTTTTG,0.986 ± 0.02
16,AAAGTTGTCT,1.01 ± 0.028
17,CAAATTGCAG,0.967 ± 0.026
18,TGGAAAAAG,0.989 ± 0.053
19,TTAGGGAGTT,0.9784 ± 0.0062
20,GCCTGTAAGT,0.989 ± 0.032
21,AAGGGCCCAA,1.004 ± 0.0074
22,AACAGAAAGG,0.982 ± 0.045
23,CAATGCAGCA,0.976 ± 0.021
24,GTGTATTTTT,0.99 ± 0.024
25,TTACGGGGAG,1 ± 0.034

row,Sequence,switch fluorescence ratio
1,GAGAGTCATC,1.035 ± 0.0087
2,ATTTGGGCCA,1.02 ± 0.022
3,TTGAGATTCG,1.01 ± 0.031
4,TGGTCCTAGG,1 ± 0.016
5,AATACGGGG,0.985 ± 0.016
6,CGGGACTGCT,0.9825 ± 0.0052
7,TCCAGGGCG,1.03 ± 0.029
8,CCGTTTCTGG,1 ± 0.063
9,TGGACGGGGA,1.03 ± 0.031
10,ACTCGTTAAA,0.978 ± 0.014
11,TGTGGGAGCG,0.9542 ± 0.0021
12,GTCAGAACTA,0.9786 ± 0.0095
13,GCAGGGGGCG,1.04 ± 0.051
14,CAAGGACGTT,0.997 ± 0.02
15,TTTTTCCGGT,1.07 ± 0.13
16,GATACGTAGG,1.009 ± 0.0049
17,ACGGAGACGG,0.979 ± 0.067
18,GTCAGATGGG,0.948 ± 0.01
19,CGGTGCGGTG,0.981 ± 0.013
20,AGTTGGAAAG,0.977 ± 0.013
21,CTTGAATGTG,1 ± 0.013
22,CTTTTAGTGG,0.9714 ± 0.0059
23,TGCAGTGGTT,1.01 ± 0.03
24,GTCGAGGGGC,0.968 ± 0.049
25,AGAATTATAT,0.973 ± 0.023
